T1: human B7H3 on cancer cell lines (human, UniProt Q5ZPR3 29-534)
T1 sequence (looked up): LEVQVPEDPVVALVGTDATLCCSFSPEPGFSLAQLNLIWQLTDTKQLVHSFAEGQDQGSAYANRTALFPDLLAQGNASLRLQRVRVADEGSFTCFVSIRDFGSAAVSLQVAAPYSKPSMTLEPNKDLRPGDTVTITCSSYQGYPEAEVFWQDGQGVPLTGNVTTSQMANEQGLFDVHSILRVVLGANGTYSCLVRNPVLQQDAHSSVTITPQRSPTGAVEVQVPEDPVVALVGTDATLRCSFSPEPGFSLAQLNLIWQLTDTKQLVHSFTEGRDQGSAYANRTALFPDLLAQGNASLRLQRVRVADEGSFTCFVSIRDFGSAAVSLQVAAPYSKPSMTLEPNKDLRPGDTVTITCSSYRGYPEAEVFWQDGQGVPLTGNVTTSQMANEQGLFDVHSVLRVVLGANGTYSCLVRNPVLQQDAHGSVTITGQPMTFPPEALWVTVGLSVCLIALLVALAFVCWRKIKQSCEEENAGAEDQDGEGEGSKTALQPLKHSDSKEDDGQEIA

T2: TPP-3760, B7H3 long, human (R&D Systems 2318-B3/CF) (human, UniProt Q5ZPR3 27-461)
T2 construct: Bought protein; also called B7H3 (RnDSystems, 2318-B3-050/CF); human B7H3
T2 sequence: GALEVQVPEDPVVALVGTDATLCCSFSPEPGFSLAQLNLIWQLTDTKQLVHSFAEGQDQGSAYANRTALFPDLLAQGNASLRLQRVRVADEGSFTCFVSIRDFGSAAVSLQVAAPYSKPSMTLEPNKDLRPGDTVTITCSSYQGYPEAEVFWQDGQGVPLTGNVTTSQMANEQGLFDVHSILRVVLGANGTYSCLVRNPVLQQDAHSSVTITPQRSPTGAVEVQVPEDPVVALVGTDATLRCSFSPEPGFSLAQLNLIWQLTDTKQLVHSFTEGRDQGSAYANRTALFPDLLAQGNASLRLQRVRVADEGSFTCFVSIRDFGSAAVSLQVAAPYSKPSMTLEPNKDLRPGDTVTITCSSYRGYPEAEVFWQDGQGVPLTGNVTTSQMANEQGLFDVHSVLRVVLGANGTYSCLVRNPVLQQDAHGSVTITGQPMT

T3: human B7H2 (RnDSystems, 8206-B7) (human, UniProt O75144 19-258, limits assumed)
T3 construct: Bought protein; His tag implied by anti-His detection
T3 sequence (looked up): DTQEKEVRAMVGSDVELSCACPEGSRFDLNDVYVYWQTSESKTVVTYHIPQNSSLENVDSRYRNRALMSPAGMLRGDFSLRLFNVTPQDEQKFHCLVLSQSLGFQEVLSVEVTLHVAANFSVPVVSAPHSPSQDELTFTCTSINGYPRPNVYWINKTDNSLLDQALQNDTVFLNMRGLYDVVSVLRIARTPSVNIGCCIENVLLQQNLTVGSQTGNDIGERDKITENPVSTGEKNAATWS

T4: human B7H4 (RnDSystems, 6576-B7) (human, UniProt Q7Z7D3 29-258, limits assumed)
T4 construct: Bought protein; His tag implied by anti-His detection
T4 sequence (looked up): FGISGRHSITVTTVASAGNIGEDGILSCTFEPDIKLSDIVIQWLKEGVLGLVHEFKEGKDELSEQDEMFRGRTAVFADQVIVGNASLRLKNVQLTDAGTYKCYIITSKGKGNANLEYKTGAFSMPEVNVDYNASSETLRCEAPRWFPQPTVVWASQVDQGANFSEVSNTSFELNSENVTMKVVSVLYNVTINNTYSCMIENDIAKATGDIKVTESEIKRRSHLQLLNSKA


What was measured:
[1] = biological target: T1, human B7H3 on cancer cell lines; assay: cell-based or functional assay
[2] = biological target: T2, TPP-3760, B7H3 long, human (R&D Systems …); assay: ELISA, IgG captured on anti-human IgG Fc, antigen 37 ng/ml, anti-His HRP detection
Protocol: (§1) Binding of the antibodies to human B7H3 and to human B7H2 and B7H4 was characterized using ELISAs. […] After washing once with PSB, 0.05% Tween, the plate was blocked with 100% Smart Block (Candor) for one hour at 37° C. The antibody to be tested was then attached to the plate (2 μg/ml IgG in PBS, 0.05% Tween, 10% Smart Block; 1 hour, room temperature). […] After washing three times, the plate was incubated with Amplex Red for 30 minutes and then read.

[3] = biological target: T3, human B7H2 (RnDSystems, 8206-B7); assay: as above
Protocol: as §1

[4] = biological target: T4, human B7H4 (RnDSystems, 6576-B7); assay: as above
Protocol: as §1

[5] = biological target: T1, human B7H3 on cancer cell lines; assay: flow cytometry on A498 cells, dose response from 10 ug/mL (1:5 dilution), FITC secondary antibody
Protocol: A dose response curve (1:5 dilution) was generated. Following incubation, 200 μL of ice-cold FACS buffer were pipetted in and the cell suspension was centrifuged at 4° C., 400 g for 4 min. The cell pellet was washed with 300 μL of ice-cold FACS buffer prior to resuspending the pellet obtained in 100 μL of FACS buffer and again incubating for 30 min on ice with secondary antibody (monoclonal anti-kappa light chains FITC antibody, Sigma, No. SAB4700605) in a 1:10 dilution. Subsequently, the cells were washed with ice-cold FACS buffer and adjusted to a cell concentration of 0.5×10⁶ cells/mL before carrying out the flow cytometry using a Guava flow cytometer (Millipore). Propidium iodide (final concentration 1 μg/mL) was used for the live staining. With the aid of the background-corrected geometric mean fluorescence values, the IC50 value of the antibody to be investigated was determined.

Molecule | NCI-H292 CTG (IC50 M) [1] | U251 CTG (IC50 M) [1] | Quotient signal (B7)/signal (buffer) [2] | Quotient signal (B7)/signal (buffer) [3] | Quotient signal (B7)/signal (buffer) [4] | EC50 [5]
208-isotype control (antibody) | 137 nM | 77.6 nM | – | – | – | –
TPP-6515 (antibody, human IgG1, lambda, V domains shown) VH: EVQLLESGGGLVQPGGSLRLSCAASGFTFSSYGMHWVRQVPGKGLEWVSAISGSGGTTYYADSVKGRFTISRDNSKNTLYLQMNSLRAEDTAVYYCARGGYHFLFDYWGQGTLVTVSS VL: QSVLTQPPSASGTPGQRVTISCSGSSSNIGSNTVNWYQQLPGTAPKLLIYRNDQRLLGVPDRFSGSKSGTSASLAISGLRSEDEADYYCQSYDSSLSGWVFGGGTKLTVLG | – | – | 116 | < 1.5 | < 1.5 | 0.661 nM
TPP-6501 (antibody, human IgG1, lambda, V domains shown) VH: EVQLLESGGGLVQPGGSLRLSCAASGFTFSSYGMHWVRQAPGKGLEWVSAISGSGGSTYYADSVKGRFTISRDNSKNTLYLQMNSLRAEDTAVYYCARGSNYLGMDVWGQGTLVTVSS VL: QSVLTQPPSASGTPGQRVTISCSGSSSNIGRNIVNWYQQLPGTAPKLLIYRSNQRPSGVPDRFSGSKSGTSASLAISGLRSEDEADYYCQTWGTGWVFGGGTKLTVLG | – | – | 118 | < 1.5 | < 1.5 | 1.23 nM
TPP-6499 (antibody, human IgG1, lambda, V domains shown) VH: EVQLLESGGGLVQPGGSLRLSCAASGFTFRDFYMNWIRQAPGKGLEWVSSISASGKYTYYADSVKGRFTISRDNSKNTLYLQMNSLRAEDTAVYYCAREWGYCTNDVCRNWFDPWGQGTLVTVSS VL: QSVLTQPPSASGTPGQRVTISCSGGYSNVGGNNVNWYQQLPGTAPKLLIYGNSNRPSGVPDRFSGSKSGTSASLAISGLRSEDEADYYCQSYDSSLSGSVFGGGTKLTVLG | – | – | 109 | < 1.5 | < 1.5 | 0.847 nM
